Results from patent US20110166032A1, “Design and Use of Sortilin Specific Molecular Imaging Ligands” (H. LUNDBECK A/S, priority 2008, published 2011).
No end group written: not given here.

T1: immobilized sSortilin (Homo sapiens, UniProt Q99523)
T1 construct: His6 (C); made in house; host or cells: CHO-K1
T1 sequence (Q99523 78-755): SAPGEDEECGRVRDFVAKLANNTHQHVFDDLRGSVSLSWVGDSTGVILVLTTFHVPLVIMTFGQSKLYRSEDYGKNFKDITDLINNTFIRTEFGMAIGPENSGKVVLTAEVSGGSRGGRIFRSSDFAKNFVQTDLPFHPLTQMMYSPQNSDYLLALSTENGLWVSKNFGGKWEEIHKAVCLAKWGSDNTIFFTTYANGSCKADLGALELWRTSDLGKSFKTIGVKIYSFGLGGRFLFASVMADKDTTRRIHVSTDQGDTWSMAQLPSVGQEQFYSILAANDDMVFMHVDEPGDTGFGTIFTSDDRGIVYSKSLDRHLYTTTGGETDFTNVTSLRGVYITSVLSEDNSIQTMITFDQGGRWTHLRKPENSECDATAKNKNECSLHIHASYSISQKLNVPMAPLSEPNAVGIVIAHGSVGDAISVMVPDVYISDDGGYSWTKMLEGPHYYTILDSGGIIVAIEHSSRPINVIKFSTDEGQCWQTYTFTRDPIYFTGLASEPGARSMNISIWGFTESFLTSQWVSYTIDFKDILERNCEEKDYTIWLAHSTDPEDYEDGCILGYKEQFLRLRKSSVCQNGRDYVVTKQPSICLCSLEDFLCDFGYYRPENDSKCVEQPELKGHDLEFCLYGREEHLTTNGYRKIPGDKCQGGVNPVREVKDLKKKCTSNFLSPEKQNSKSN

T2: sSortilin S316E mutant (Homo sapiens, UniProt Q99523, S316E)
T2 construct: His6 (C); made in house; host or cells: CHO cells
T2 sequence (Q99523 78-755 S316E): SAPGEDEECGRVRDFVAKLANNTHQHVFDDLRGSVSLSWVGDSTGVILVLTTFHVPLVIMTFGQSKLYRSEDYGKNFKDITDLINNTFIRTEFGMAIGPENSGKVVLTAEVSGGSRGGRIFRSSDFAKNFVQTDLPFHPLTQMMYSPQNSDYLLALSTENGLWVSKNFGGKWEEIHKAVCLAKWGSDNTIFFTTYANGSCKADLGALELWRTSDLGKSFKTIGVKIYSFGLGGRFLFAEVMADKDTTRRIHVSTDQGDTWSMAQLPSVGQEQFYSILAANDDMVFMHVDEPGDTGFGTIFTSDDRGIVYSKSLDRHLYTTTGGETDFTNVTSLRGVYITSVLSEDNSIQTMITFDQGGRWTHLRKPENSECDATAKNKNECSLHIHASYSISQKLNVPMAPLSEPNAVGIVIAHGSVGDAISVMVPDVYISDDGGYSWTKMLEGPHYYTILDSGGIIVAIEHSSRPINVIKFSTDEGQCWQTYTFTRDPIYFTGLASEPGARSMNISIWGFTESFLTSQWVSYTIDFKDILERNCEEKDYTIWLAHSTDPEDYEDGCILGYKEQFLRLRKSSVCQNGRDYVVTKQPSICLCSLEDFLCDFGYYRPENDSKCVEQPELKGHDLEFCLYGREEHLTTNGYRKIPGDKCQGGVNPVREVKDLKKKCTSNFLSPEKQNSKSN

T3: sSortilin S316E mutant (human, UniProt Q99523 78-755)
T3 construct: those of wt sSortilin are used
T3 sequence: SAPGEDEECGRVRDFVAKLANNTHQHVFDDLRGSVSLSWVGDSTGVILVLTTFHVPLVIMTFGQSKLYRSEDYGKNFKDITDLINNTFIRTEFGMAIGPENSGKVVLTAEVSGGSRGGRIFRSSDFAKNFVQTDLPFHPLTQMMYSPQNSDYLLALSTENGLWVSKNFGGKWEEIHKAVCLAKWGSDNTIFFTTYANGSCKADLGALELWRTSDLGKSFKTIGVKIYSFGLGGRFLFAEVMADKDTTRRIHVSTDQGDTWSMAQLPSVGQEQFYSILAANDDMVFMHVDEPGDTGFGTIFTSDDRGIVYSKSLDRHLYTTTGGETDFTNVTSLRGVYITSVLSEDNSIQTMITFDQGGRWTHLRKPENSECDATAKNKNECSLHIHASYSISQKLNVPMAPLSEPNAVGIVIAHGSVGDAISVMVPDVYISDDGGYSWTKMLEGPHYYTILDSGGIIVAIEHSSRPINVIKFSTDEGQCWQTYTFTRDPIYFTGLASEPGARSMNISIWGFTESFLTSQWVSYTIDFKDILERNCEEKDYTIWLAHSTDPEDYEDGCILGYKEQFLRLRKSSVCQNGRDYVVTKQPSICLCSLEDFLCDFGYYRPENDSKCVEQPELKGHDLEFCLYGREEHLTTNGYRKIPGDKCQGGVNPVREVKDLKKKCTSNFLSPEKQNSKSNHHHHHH

T4: Soluble Sortilin (sSortilin), luminal domain of human Sortilin fused C-terminally to His6 (human, UniProt Q99523 78-755)
T4 construct: Expressed in CHO-K1 cells; 1; also called wtSortilin; wt sSortilin
T4 sequence: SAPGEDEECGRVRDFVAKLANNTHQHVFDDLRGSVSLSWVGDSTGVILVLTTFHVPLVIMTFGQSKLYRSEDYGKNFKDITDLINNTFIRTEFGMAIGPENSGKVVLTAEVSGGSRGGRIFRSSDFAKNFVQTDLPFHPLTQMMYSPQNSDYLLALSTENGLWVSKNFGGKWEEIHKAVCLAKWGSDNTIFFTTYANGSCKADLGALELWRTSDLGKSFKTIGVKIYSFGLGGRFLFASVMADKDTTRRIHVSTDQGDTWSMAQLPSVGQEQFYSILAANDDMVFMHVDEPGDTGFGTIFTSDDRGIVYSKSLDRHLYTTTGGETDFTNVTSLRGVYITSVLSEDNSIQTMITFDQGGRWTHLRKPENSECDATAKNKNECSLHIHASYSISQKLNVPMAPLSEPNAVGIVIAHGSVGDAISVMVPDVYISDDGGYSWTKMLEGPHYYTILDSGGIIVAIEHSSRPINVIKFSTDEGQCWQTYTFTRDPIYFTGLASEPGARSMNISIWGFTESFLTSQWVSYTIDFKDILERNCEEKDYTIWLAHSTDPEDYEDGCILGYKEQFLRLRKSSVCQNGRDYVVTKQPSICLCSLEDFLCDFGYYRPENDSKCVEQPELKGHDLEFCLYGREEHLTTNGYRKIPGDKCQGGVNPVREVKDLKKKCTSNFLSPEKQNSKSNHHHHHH


How the values were obtained:
immobilized sSortilin = target: T1, immobilized sSortilin; experiment: Surface plasmon resonance: inhibition of ligand binding to immobilized sSortilin by Neurotensin derived peptides; settings: for inhibition of Sortilin's binding of its own propeptide (Sort-pro): GST-Sort-pro binding to immobilized sSortilin, FIG. 3A+B
Description: (§1) Surface plasmon resonance (SPR) measurements were performed on a BIAcore 2000 instrument (Biacore Sweden) equipped with CM5 sensor chips maintained at 20° C. A continuous flow of HBS buffer (10 mM HEPES pH 7.4, 3.4 mM EDTA, 150 mM NaCl, 0.005% surfactant P20) passing over the sensor surface was maintained at 5 μl/min. […] A sortilin solution (320 μl, 5 μg/ml in 10 mM sodium acetate pH 4.0) was then injected over flow cells 1 and 2 at a flow rate of 15 μl/min. Remaining binding sites in all three flow cells were blocked by injection (5 μl/min) of 70 μl of 1 M ethanolamine pH 8.5. […] Screening of the samples was performed by injecting aliquots of 50 μl, at concentrations of 0.1-8 μM, through all flow cells with a flow rate of 5 μl/min. Unless otherwise stated, the samples were dissolved in 10 mM HEPES pH 7.4, 150 mM NaCl, 1.5 mM CaCl2, 1 mM EGTA, 0.005% surfactant P20. Sample buffer was also used as running buffer. The BIAcore response is expressed in relative response units (RU), i.e. the difference in response between the immobilized protein flow cell and the corresponding control flow cell (activated and blocked but without protein). Regeneration of the sensor chip after each cycle of analysis was performed by injecting 20 μl of 10 mM glycine/HCl pH 4.0, 500 mM NaCl, 20 mM EDTA and 0.005% surfactant P20. For calciumfree conditions, HBS containing 20 mM EDTA was used as sample as well as running buffer.

sSortilin S316E mutant [1] = target: T2, sSortilin S316E mutant; experiment: Surface plasmon resonance: ligand binding to purified S316E mutant sSortilin compared with wt sSortilin; settings: compared with wtSortilin, SPR
Description: as §1

sSortilin S316E mutant [2] = target: T3, sSortilin S316E mutant; experiment: SPR, immobilised S316E sSortilin
Description: as §1, with “For calciumfree conditions, HBS containing 20 mM EDTA was used as sample as well as running buffer.” left out

[3] = target: T4, Soluble Sortilin (sSortilin), luminal …; experiment: SPR (BIAcore 3000), immobilised sSortilin
Description: All measurements were performed on a BIAcore 3000 instrument (Biacore Sweden) maintained at 20° C. A continuous flow of buffer F (10 mM HEPES pH=7.4, 150 mM (NH₄)₂SO₄, 1.5 mM CaCl₂, 1.5 mM EGTA and 0.005% Tween-20) was passed over the CM5 chip sensor surface at 5 μl/min.

| Molecule | inhibition of Sortilin's binding of its own propeptide (Sort-pro) (immobilized sSortilin; SPR) | binding to S316E mutant sSortilin (sSortilin S316E mutant [1]) | also measured |
| --- | --- | --- | --- |
| Arg8-Arg-Pro-Tyr-Ile-Leu13-NH2 [reference compound] | fails to inhibit |  |  |
| Arg9-Pro-Tyr-Ile-Leu13 [reference compound] | equally effective |  |  |
| Sort-pro: Sortilin's own propeptide (amino acid residues 34-77 of SEQ ID NO. 1), used fused to GST (QDRLDAPPPPAAPLPRWSGPIGVSWGLRAAAAGGAFPRGGRWRR; also: fused to GST) |  | no binding |  |
| Tyr-Ile-Leu [Tyr11-Ile-Leu13] | full inhibition |  | affinity for Sortilin (summary statement) (immobilized sSortilin): high affinity; inhibition of binding of the prodomain of NGF to sSortilin (immobilized sSortilin; GST-tagged propeptide of NGF, SPR, FIG. 3C): hampers binding; inhibition of binding of RAP to sSortilin (immobilized sSortilin; SPR, FIG. 3D): hampers binding |
| QDRLDAPPPPAAPLPRWSGPIGVSWGLRAAAAGGAFPRGGRWRR (other, also: fused to GST, order and linker not given here, the construct is 'as previously described (5)'; also called Sortilin propeptide fused to GST; not shown: glutathione S-transferase (GST) tag) [GST-tagged Sortilin propeptide (GST-Sort-pro)] |  |  | binding result (sSortilin S316E mutant [2]): no binding |
| BDNF: Mature BDNF (SEQ ID NO. 7) purchased from R&D Systems (protein, listed as Homo sapiens, SIGNAL (1)..(18) Signal peptide of BDNF) MTILFLTMVISYFGCMKAAPMKEANIRGQGGLAYPGVRTHGTLESVNGPKAGSGLTSLADTFEHVIEELLDEDQKVRPNEENNKDADLYTSRVMLSSQVPLEPPLLFLLEEYKNYLDAANMSMRVRRHSDPARRGELSVCDSISEWVTAADKKTAVDMSGGTVTVLEKVPVSKGQLKQYFYETKCNPMGYTKEGCRGIDKRHWNSQCRTTQSYVRALTMDSKKRIGWRFIRIDTSCVCTLTIKRGR |  | did bind |  |
| propeptide of Nerve Growth Factor (NGFpro), E. coli expressed, His6 tag removed by TEV (ligand, also called NGF propeptide; pro-domain of Nerve Growth Factor) EPHSESNVPAGHTIPQVHWTKLQHSLDTALRRARSAPAAAIAARVAGQTRNITVDPRLFKKRRLRSPRVLFSTQPPREAADTQDLDFEVGGAAPFNRTHRSKR |  |  | Kd [3]: ~10 nM |
| NGFpro: propeptide of Nerve Growth Factor, amino acid residues 19 to 121 of SEQ ID NO 6 (protein, left off: a dimerising Fc or GST) EPHSESNVPAGHTIPQVHWTKLQHSLDTALRRARSAPAAAIAARVAGQTRNITVDPRLFKKRRLRSPRVLFSTQPPREAADTQDLDFEVGGAAPFNRTHRSKR |  | did bind |  |
